# Laboratory results as given in article PMC10786891, “Massively parallel profiling of RNA-targeting CRISPR-Cas13d”.
# T1: EsCas13d, nuclease-dead (Eubacterium siraeum, UniProt B0MS50, R295A;H300A;R849A;H854A)
# T1 sequence: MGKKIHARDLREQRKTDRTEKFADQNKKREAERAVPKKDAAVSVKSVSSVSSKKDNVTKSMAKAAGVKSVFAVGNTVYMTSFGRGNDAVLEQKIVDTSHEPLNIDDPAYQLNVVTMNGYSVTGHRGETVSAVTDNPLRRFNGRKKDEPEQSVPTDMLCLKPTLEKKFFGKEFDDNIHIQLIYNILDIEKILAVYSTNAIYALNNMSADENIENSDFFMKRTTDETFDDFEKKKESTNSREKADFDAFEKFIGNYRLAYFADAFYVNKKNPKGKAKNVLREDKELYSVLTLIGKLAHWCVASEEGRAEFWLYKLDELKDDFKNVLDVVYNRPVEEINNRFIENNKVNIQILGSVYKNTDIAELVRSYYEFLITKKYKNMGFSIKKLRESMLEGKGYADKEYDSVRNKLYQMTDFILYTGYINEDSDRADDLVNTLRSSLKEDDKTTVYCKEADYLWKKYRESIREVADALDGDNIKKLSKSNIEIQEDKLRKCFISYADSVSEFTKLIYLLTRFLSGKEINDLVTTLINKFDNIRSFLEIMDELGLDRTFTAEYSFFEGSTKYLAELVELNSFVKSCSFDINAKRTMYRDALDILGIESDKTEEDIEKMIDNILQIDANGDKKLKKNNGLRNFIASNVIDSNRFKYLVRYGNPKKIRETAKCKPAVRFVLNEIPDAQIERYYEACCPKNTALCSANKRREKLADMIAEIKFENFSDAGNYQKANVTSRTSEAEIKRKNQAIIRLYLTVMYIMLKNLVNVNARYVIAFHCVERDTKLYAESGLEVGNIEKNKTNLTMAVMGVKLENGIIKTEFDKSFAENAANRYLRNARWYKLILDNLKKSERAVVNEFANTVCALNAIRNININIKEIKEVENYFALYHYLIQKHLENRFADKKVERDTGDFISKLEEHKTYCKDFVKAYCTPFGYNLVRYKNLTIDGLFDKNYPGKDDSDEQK
# B1: target 2 MT 5'PFS UUA 3'PFS UAG (mixed)
# RNA 1: CACCCGUGCAAAAUUGCAGGGGUCUAAAACCUUCUCCAAAUUGUUUCAUCCU
# RNA 2: GGGAAUGGAUCCACAUCUACGAAUUCUUAAGGAUGAAACAAUUUGGAGAAGUAGAGAUCGGAAGAGCACACGU
# B2: target 2 MT 5'PFS AGU 3'PFS CUU (mixed)
# RNA 1: CACCCGUGCAAAAUUGCAGGGGUCUAAAACCUUCUCCAAAUUGUUUCAUCCU
# RNA 2: GGGAAUGGAUCCACAUCUACGAAUUCAGUAGGAUGAAACAAUUUGGAGAAGCUUAGAUCGGAAGAGCACACGU
# B3: target 2 MT 5'PFS ACU 3'PFS CCA (mixed)
# RNA 1: CACCCGUGCAAAAUUGCAGGGGUCUAAAACCUUCUCCAAAUUGUUUCAUCCU
# RNA 2: GGGAAUGGAUCCACAUCUACGAAUUCACUAGGAUGAAACAAUUUGGAGAAGCCAAGAUCGGAAGAGCACACGU
# B4: target 2 MT 5'PFS AUC 3'PFS CGA (mixed)
# RNA 1: CACCCGUGCAAAAUUGCAGGGGUCUAAAACCUUCUCCAAAUUGUUUCAUCCU
# RNA 2: GGGAAUGGAUCCACAUCUACGAAUUCAUCAGGAUGAAACAAUUUGGAGAAGCGAAGAUCGGAAGAGCACACGU
# B5: target 2 MT 5'PFS CAU 3'PFS UGC (mixed)
# RNA 1: CACCCGUGCAAAAUUGCAGGGGUCUAAAACCUUCUCCAAAUUGUUUCAUCCU
# RNA 2: GGGAAUGGAUCCACAUCUACGAAUUCCAUAGGAUGAAACAAUUUGGAGAAGUGCAGAUCGGAAGAGCACACGU
# B6: target 2 MT 5'PFS GGC 3'PFS UGU (mixed)
# RNA 1: CACCCGUGCAAAAUUGCAGGGGUCUAAAACCUUCUCCAAAUUGUUUCAUCCU
# RNA 2: GGGAAUGGAUCCACAUCUACGAAUUCGGCAGGAUGAAACAAUUUGGAGAAGUGUAGAUCGGAAGAGCACACGU
# B7: target 2 MT 5'PFS CAU 3'PFS UGA (mixed)
# RNA 1: CACCCGUGCAAAAUUGCAGGGGUCUAAAACCUUCUCCAAAUUGUUUCAUCCU
# RNA 2: GGGAAUGGAUCCACAUCUACGAAUUCCAUAGGAUGAAACAAUUUGGAGAAGUGAAGAUCGGAAGAGCACACGU
# B8: target 2 MT 5'PFS GGC 3'PFS UGA (mixed)
# RNA 1: CACCCGUGCAAAAUUGCAGGGGUCUAAAACCUUCUCCAAAUUGUUUCAUCCU
# RNA 2: GGGAAUGGAUCCACAUCUACGAAUUCGGCAGGAUGAAACAAUUUGGAGAAGUGAAGAUCGGAAGAGCACACGU
# B9: target 2 MT 5'PFS CGG 3'PFS UCG (mixed)
# RNA 1: CACCCGUGCAAAAUUGCAGGGGUCUAAAACCUUCUCCAAAUUGUUUCAUCCU
# RNA 2: GGGAAUGGAUCCACAUCUACGAAUUCCGGAGGAUGAAACAAUUUGGAGAAGUCGAGAUCGGAAGAGCACACGU
# B10: target 2 MT 5'PFS CAU 3'PFS UGU (mixed)
# RNA 1: CACCCGUGCAAAAUUGCAGGGGUCUAAAACCUUCUCCAAAUUGUUUCAUCCU
# RNA 2: GGGAAUGGAUCCACAUCUACGAAUUCCAUAGGAUGAAACAAUUUGGAGAAGUGUAGAUCGGAAGAGCACACGU
# B11: target 2 MT 5'PFS GUC 3'PFS UUA (mixed)
# RNA 1: CACCCGUGCAAAAUUGCAGGGGUCUAAAACCUUCUCCAAAUUGUUUCAUCCU
# RNA 2: GGGAAUGGAUCCACAUCUACGAAUUCGUCAGGAUGAAACAAUUUGGAGAAGUUAAGAUCGGAAGAGCACACGU
# B12: target 2 MT 5'PFS ACU 3'PFS CCG (mixed)
# RNA 1: CACCCGUGCAAAAUUGCAGGGGUCUAAAACCUUCUCCAAAUUGUUUCAUCCU
# RNA 2: GGGAAUGGAUCCACAUCUACGAAUUCACUAGGAUGAAACAAUUUGGAGAAGCCGAGAUCGGAAGAGCACACGU
# B13: target 2 MT 5'PFS UUA 3'PFS UAU (mixed)
# RNA 1: CACCCGUGCAAAAUUGCAGGGGUCUAAAACCUUCUCCAAAUUGUUUCAUCCU
# RNA 2: GGGAAUGGAUCCACAUCUACGAAUUCUUAAGGAUGAAACAAUUUGGAGAAGUAUAGAUCGGAAGAGCACACGU
# B14: target 2 MT 5'PFS CUC 3'PFS UCG (mixed)
# RNA 1: CACCCGUGCAAAAUUGCAGGGGUCUAAAACCUUCUCCAAAUUGUUUCAUCCU
# RNA 2: GGGAAUGGAUCCACAUCUACGAAUUCCUCAGGAUGAAACAAUUUGGAGAAGUCGAGAUCGGAAGAGCACACGU
# B15: target 2 MT 5'PFS AUA 3'PFS CGC (mixed)
# RNA 1: CACCCGUGCAAAAUUGCAGGGGUCUAAAACCUUCUCCAAAUUGUUUCAUCCU
# RNA 2: GGGAAUGGAUCCACAUCUACGAAUUCAUAAGGAUGAAACAAUUUGGAGAAGCGCAGAUCGGAAGAGCACACGU
# B16: target 2 MT 5'PFS GUC 3'PFS UUU (mixed)
# RNA 1: CACCCGUGCAAAAUUGCAGGGGUCUAAAACCUUCUCCAAAUUGUUUCAUCCU
# RNA 2: GGGAAUGGAUCCACAUCUACGAAUUCGUCAGGAUGAAACAAUUUGGAGAAGUUUAGAUCGGAAGAGCACACGU
# B17: target 2 MT 5'PFS AUU 3'PFS UUA (mixed)
# RNA 1: CACCCGUGCAAAAUUGCAGGGGUCUAAAACCUUCUCCAAAUUGUUUCAUCCU
# RNA 2: GGGAAUGGAUCCACAUCUACGAAUUCAUUAGGAUGAAACAAUUUGGAGAAGUUAAGAUCGGAAGAGCACACGU
# B18: target 2 MT 5'PFS GUC 3'PFS UUC (mixed)
# RNA 1: CACCCGUGCAAAAUUGCAGGGGUCUAAAACCUUCUCCAAAUUGUUUCAUCCU
# RNA 2: GGGAAUGGAUCCACAUCUACGAAUUCGUCAGGAUGAAACAAUUUGGAGAAGUUCAGAUCGGAAGAGCACACGU
# B19: target 2 MT 5'PFS GCU 3'PFS UCU (mixed)
# RNA 1: CACCCGUGCAAAAUUGCAGGGGUCUAAAACCUUCUCCAAAUUGUUUCAUCCU
# RNA 2: GGGAAUGGAUCCACAUCUACGAAUUCGCUAGGAUGAAACAAUUUGGAGAAGUCUAGAUCGGAAGAGCACACGU
# B20: target 2 MT 5'PFS CGA 3'PFS CGA (mixed)
# RNA 1: CACCCGUGCAAAAUUGCAGGGGUCUAAAACCUUCUCCAAAUUGUUUCAUCCU
# RNA 2: GGGAAUGGAUCCACAUCUACGAAUUCCGAAGGAUGAAACAAUUUGGAGAAGCGAAGAUCGGAAGAGCACACGU
# B21: target 2 MT 5'PFS ACC 3'PFS UUU (mixed)
# RNA 1: CACCCGUGCAAAAUUGCAGGGGUCUAAAACCUUCUCCAAAUUGUUUCAUCCU
# RNA 2: GGGAAUGGAUCCACAUCUACGAAUUCACCAGGAUGAAACAAUUUGGAGAAGUUUAGAUCGGAAGAGCACACGU
# B22: target 2 MT 5'PFS CGA 3'PFS CGC (mixed)
# RNA 1: CACCCGUGCAAAAUUGCAGGGGUCUAAAACCUUCUCCAAAUUGUUUCAUCCU
# RNA 2: GGGAAUGGAUCCACAUCUACGAAUUCCGAAGGAUGAAACAAUUUGGAGAAGCGCAGAUCGGAAGAGCACACGU
# B23: target 2 MT 5'PFS AUA 3'PFS CGA (mixed)
# RNA 1: CACCCGUGCAAAAUUGCAGGGGUCUAAAACCUUCUCCAAAUUGUUUCAUCCU
# RNA 2: GGGAAUGGAUCCACAUCUACGAAUUCAUAAGGAUGAAACAAUUUGGAGAAGCGAAGAUCGGAAGAGCACACGU
# B24: target 2 MT 5'PFS CCC 3'PFS UCC (mixed)
# RNA 1: CACCCGUGCAAAAUUGCAGGGGUCUAAAACCUUCUCCAAAUUGUUUCAUCCU
# RNA 2: GGGAAUGGAUCCACAUCUACGAAUUCCCCAGGAUGAAACAAUUUGGAGAAGUCCAGAUCGGAAGAGCACACGU
# B25: target 2 MT 5'PFS CGA 3'PFS AGA (mixed)
# RNA 1: CACCCGUGCAAAAUUGCAGGGGUCUAAAACCUUCUCCAAAUUGUUUCAUCCU
# RNA 2: GGGAAUGGAUCCACAUCUACGAAUUCCGAAGGAUGAAACAAUUUGGAGAAGAGAAGAUCGGAAGAGCACACGU
# B26: target 1 insG 3' of 2,insG 3' of 2 (mixed)
# RNA 1: CACCCGUGCAAAAAUGCAGGGGUCUAAAACUGAGCGGAUAACCUCUCUAUGG
# RNA 2: GGGAAUGGAUCCACAUCUACGAAUUCGUACCAUAGAGAGGUUAUCCGCUCGGACCGAGAUCGGAAGAGCACACGU
# B27: target 1 insC 3' of 16,insU 3' of 7 (mixed)
# RNA 1: CACCCGUGCAAAAAUGCAGGGGUCUAAAACUGAGCGGAUAACCUCUCUAUGG
# RNA 2: GGGAAUGGAUCCACAUCUACGAAUUCGUACCAUAGACGAGGUUAUCUCGCUCACCGAGAUCGGAAGAGCACACGU
# B28: target 1 insG 3' of 1,insU 3' of 1 (mixed)
# RNA 1: CACCCGUGCAAAAAUGCAGGGGUCUAAAACUGAGCGGAUAACCUCUCUAUGG
# RNA 2: GGGAAUGGAUCCACAUCUACGAAUUCGUACCAUAGAGAGGUUAUCCGCUCAGUCCGAGAUCGGAAGAGCACACGU
# Molecular target: T1, EsCas13d, nuclease-dead
# Test: crRNA (strand 1, pre-loaded); Mg2+; 40 mM Tris-HCl pH 7.5, 150 mM NaCl, 6 mM MgCl2, 1 mM DTT, 0.1% Tween-20, 0.2 mg/ml BSA; 25 C; 10 min per concentration, then washed
# Settings: tags: His6-TwinStrep-SUMO cleaved; N-terminal SNAP kept (SNAP-Surface 488); label: 3' end held by stalled T7 RNA polymerase
row,Binder,Kd
1,B1,22 ± 5 nM
2,B2,24 ± 8 nM
3,B3,7.3 ± 1.8 nM
4,B4,61 ± 20 nM
5,B5,3.1 ± 0.5 nM
6,B6,27.8 ± 3.5 nM
7,B7,4.5 ± 1.4 nM
8,B8,18 ± 4 nM
9,B9,7 ± 0.6 nM
10,B10,4.4 ± 0.5 nM
11,B11,31 ± 6 nM
12,B12,6.2 ± 0.6 nM
13,B13,15.9 ± 2.4 nM
14,B14,4 ± 0.8 nM
15,B15,7.8 ± 0.8 nM
16,B16,58 ± 15 nM
17,B17,13.5 ± 2.1 nM
18,B18,~47 nM
19,B19,34 ± 11 nM
20,B20,5.3 ± 1 nM
21,B21,7.8 ± 0.9 nM
22,B22,5.6 ± 1.5 nM
23,B23,9.5 ± 2.1 nM
24,B24,2.1 ± 0.5 nM
25,B25,4.6 ± 0.9 nM
26,B26,7.5 ± 0.5 nM
27,B27,75 ± 8 nM
28,B28,10.5 ± 1.2 nM
